B1: Spindle assembly abnormal protein 6 (Caenorhabditis elegans), O62479 (parent)
chain: MTSKIALFDQTLIASLLQPLSLNQPDFKAYKTKVKLKISEQRNETSGEKELKFEISRSDDFEFLFSETLNNEKYQILARDHDLTVDFDAFPKVIIQHLLCKNIVKNLEEDGEVDARKKAGYHSIADPGKPTEINIILDAEKNFCSFELFSKTPISKGKIFSIKLHAVRGDHLISHLLKICSSQAVKLSTFYKSADELASLRQKCGDLEKQVEKLSGVKEEFEEMSEKFKELEDEVELVKEERENIRLLVEDKEDEVADLKQDTESLQKQLEENQEELEIVGNMLREEQGKVDQLQKRNVAHQKEIGKLRAELGTAQRNLEKADQLLKRNSQQQNQQSLDMRKLGELEADLKEKDSMVESLTETIGILRKELENEKLKAAENMDSFEKLSMENENLKEKIAHYRAQRFSPAPSGLPGLQTGLTNRLTPSFKPVLGPHTPYGANLNSRTPFRDNTTLNFQNSTIATPHAFRFNSQLIADETTGSSVTNTPPAQR
partner: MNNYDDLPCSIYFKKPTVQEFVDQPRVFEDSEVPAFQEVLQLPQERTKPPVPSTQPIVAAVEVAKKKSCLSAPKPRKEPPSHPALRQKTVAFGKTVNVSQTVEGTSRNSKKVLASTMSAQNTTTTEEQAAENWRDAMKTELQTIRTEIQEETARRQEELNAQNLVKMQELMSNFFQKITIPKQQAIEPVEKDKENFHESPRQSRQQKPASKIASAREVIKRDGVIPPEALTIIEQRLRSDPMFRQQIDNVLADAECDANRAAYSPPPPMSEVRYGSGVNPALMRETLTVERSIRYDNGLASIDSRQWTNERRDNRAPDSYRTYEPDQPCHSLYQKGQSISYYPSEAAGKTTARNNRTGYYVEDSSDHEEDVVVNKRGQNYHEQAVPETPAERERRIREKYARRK

Variants of: B1
Conditions: with sas5_caeel sas-5, Q20010

Variant	effect of a mutation on the interaction
MTSKIALFDQTLIASLLQPLSLNQPDFKAYKTKVKLKISEQRNETSGEKELKFEISRSDDFEFLFSETLNNEKYQILARDHDLTVDFDAFPKVIIQHLLCKNIVKNLEEDGEVDARKKAGYHSIADPGKPTEINIILDAEKNFCSFELFSKTPISKGKIFSIKLHAVRGDHLISHLLKICSSQAVKLSTFYKSADELASLRQKCGDLEKQVEKLSGVKEEFEEMSEKFKELEDEVELVKEERENIRLLVEDKEDEVADLKQDTESLQKQLEENQAELEIVGNMLREEQGKVDQLQKRNVAHQKEIGKLRAELGTAQRNLEKADQLLKRNSQQQNQQSLDMRKLGELEADLKEKDSMVESLTETIGILRKELENEKLKAAENMDSFEKLSMENENLKEKIAHYRAQRFSPAPSGLPGLQTGLTNRLTPSFKPVLGPHTPYGANLNSRTPFRDNTTLNFQNSTIATPHAFRFNSQLIADETTGSSVTNTPPAQR [E275A]	decreasing interaction
MTSKIALFDQTLIASLLQPLSLNQPDFKAYKTKVKLKISEQRNETSGEKELKFEISRSDDFEFLFSETLNNEKYQILARDHDLTVDFDAFPKVIIQHLLCKNIVKNLEEDGEVDARKKAGYHSIADPGKPTEINIILDAEKNFCSFELFSKTPISKGKIFSIKLHAVRGDHLISHLLKICSSQAVKLSTFYKSADELASLRQKCGDLEKQVEKLSGVKEEFEEMSEKFKELEDEVELVKEERENIRLLVEDKEDEVADLKQDTESLQKQLEENQEALEIVGNMLREEQGKVDQLQKRNVAHQKEIGKLRAELGTAQRNLEKADQLLKRNSQQQNQQSLDMRKLGELEADLKEKDSMVESLTETIGILRKELENEKLKAAENMDSFEKLSMENENLKEKIAHYRAQRFSPAPSGLPGLQTGLTNRLTPSFKPVLGPHTPYGANLNSRTPFRDNTTLNFQNSTIATPHAFRFNSQLIADETTGSSVTNTPPAQR [E276A]	decreasing interaction
MTSKIALFDQTLIASLLQPLSLNQPDFKAYKTKVKLKISEQRNETSGEKELKFEISRSDDFEFLFSETLNNEKYQILARDHDLTVDFDAFPKVIIQHLLCKNIVKNLEEDGEVDARKKAGYHSIADPGKPTEINIILDAEKNFCSFELFSKTPISKGKIFSIKLHAVRGDHLISHLLKICSSQAVKLSTFYKSADELASLRQKCGDLEKQVEKLSGVKEEFEEMSEKFKELEDEVELVKEERENIRLLVEDKEDEVADLKQDTESLQKQLEENQEELAIVGNMLREEQGKVDQLQKRNVAHQKEIGKLRAELGTAQRNLEKADQLLKRNSQQQNQQSLDMRKLGELEADLKEKDSMVESLTETIGILRKELENEKLKAAENMDSFEKLSMENENLKEKIAHYRAQRFSPAPSGLPGLQTGLTNRLTPSFKPVLGPHTPYGANLNSRTPFRDNTTLNFQNSTIATPHAFRFNSQLIADETTGSSVTNTPPAQR [E278A]	decreasing interaction

Variants of: B1
Conditions: with sas5_caeel sas-5, Q20010
Remark: another data set of the same source

Variant	effect of a mutation on the interaction
MTSKIALFDQTLIASLLQPLSLNQPDFKAYKTKVKLKISEQRNETSGEKELKFEISRSDDFEFLFSETLNNEKYQILARDHDLTVDFDAFPKVIIQHLLCKNIVKNLEEDGEVDARKKAGYHSIADPGKPTEINIILDAEKNFCSFELFSKTPISKGKIFSIKLHAVRGDHLISHLLKICSSQAVKLSTFYKSADELASLRQKCGDLEKQVEKLSGVKEEFEEMSEKFKELEDEVELVKEERENIRLLVEDKEDEVADLKQDTESLQKQLEENQAELEIVGNMLREEQGKVDQLQKRNVAHQKEIGKLRAELGTAQRNLEKADQLLKRNSQQQNQQSLDMRKLGELEADLKEKDSMVESLTETIGILRKELENEKLKAAENMDSFEKLSMENENLKEKIAHYRAQRFSPAPSGLPGLQTGLTNRLTPSFKPVLGPHTPYGANLNSRTPFRDNTTLNFQNSTIATPHAFRFNSQLIADETTGSSVTNTPPAQR [E275A]	disrupting interaction
MTSKIALFDQTLIASLLQPLSLNQPDFKAYKTKVKLKISEQRNETSGEKELKFEISRSDDFEFLFSETLNNEKYQILARDHDLTVDFDAFPKVIIQHLLCKNIVKNLEEDGEVDARKKAGYHSIADPGKPTEINIILDAEKNFCSFELFSKTPISKGKIFSIKLHAVRGDHLISHLLKICSSQAVKLSTFYKSADELASLRQKCGDLEKQVEKLSGVKEEFEEMSEKFKELEDEVELVKEERENIRLLVEDKEDEVADLKQDTESLQKQLEENQEALEIVGNMLREEQGKVDQLQKRNVAHQKEIGKLRAELGTAQRNLEKADQLLKRNSQQQNQQSLDMRKLGELEADLKEKDSMVESLTETIGILRKELENEKLKAAENMDSFEKLSMENENLKEKIAHYRAQRFSPAPSGLPGLQTGLTNRLTPSFKPVLGPHTPYGANLNSRTPFRDNTTLNFQNSTIATPHAFRFNSQLIADETTGSSVTNTPPAQR [E276A]	disrupting interaction
MTSKIALFDQTLIASLLQPLSLNQPDFKAYKTKVKLKISEQRNETSGEKELKFEISRSDDFEFLFSETLNNEKYQILARDHDLTVDFDAFPKVIIQHLLCKNIVKNLEEDGEVDARKKAGYHSIADPGKPTEINIILDAEKNFCSFELFSKTPISKGKIFSIKLHAVRGDHLISHLLKICSSQAVKLSTFYKSADELASLRQKCGDLEKQVEKLSGVKEEFEEMSEKFKELEDEVELVKEERENIRLLVEDKEDEVADLKQDTESLQKQLEENQEELAIVGNMLREEQGKVDQLQKRNVAHQKEIGKLRAELGTAQRNLEKADQLLKRNSQQQNQQSLDMRKLGELEADLKEKDSMVESLTETIGILRKELENEKLKAAENMDSFEKLSMENENLKEKIAHYRAQRFSPAPSGLPGLQTGLTNRLTPSFKPVLGPHTPYGANLNSRTPFRDNTTLNFQNSTIATPHAFRFNSQLIADETTGSSVTNTPPAQR [E278A]	disrupting interaction

Variants of: B1
Conditions: with sas5_caeel sas-5, Q20010
Remark: another data set of the same source

Variant	effect of a mutation on the interaction
MTSKIALFDQTLIASLLQPLSLNQPDFKAYKTKVKLKISEQRNETSGEKELKFEISRSDDFEFLFSETLNNEKYQILARDHDLTVDFDAFPKVIIQHLLCKNIVKNLEEDGEVDARKKAGYHSIADPGKPTEINIILDAEKNFCSFELFSKTPISKGKIFSIKLHAVRGDHLISHLLKICSSQAVKLSTFYKSADELASLRQKCGDLEKQVEKLSGVKEEFEEMSEKFKELEDEVELVKEERENIRLLVEDKEDEVADLKQDTESLQKQLEENQEELEIVGNMLREAQGKVDQLQKRNVAHQKEIGKLRAELGTAQRNLEKADQLLKRNSQQQNQQSLDMRKLGELEADLKEKDSMVESLTETIGILRKELENEKLKAAENMDSFEKLSMENENLKEKIAHYRAQRFSPAPSGLPGLQTGLTNRLTPSFKPVLGPHTPYGANLNSRTPFRDNTTLNFQNSTIATPHAFRFNSQLIADETTGSSVTNTPPAQR [E287A]	decreasing interaction

Variants of: B1
Conditions: with sas5_caeel sas-5, Q20010
Remark: another data set of the same source

Variant	effect of a mutation on the interaction
MTSKIALFDQTLIASLLQPLSLNQPDFKAYKTKVKLKISEQRNETSGEKELKFEISRSDDFEFLFSETLNNEKYQILARDHDLTVDFDAFPKVIIQHLLCKNIVKNLEEDGEVDARKKAGYHSIADPGKPTEINIILDAEKNFCSFELFSKTPISKGKIFSIKLHAVRGDHLISHLLKICSSQAVKLSTFYKSADELASLRQKCGDLEKQVEKLSGVKEEFEEMSEKFKELEDEVELVKEERENIRLLVEDKEDEVADLKQDTESLQKQLEENQEELEAVGNMLREEQGKVDQLQKRNVAHQKEIGKLRAELGTAQRNLEKADQLLKRNSQQQNQQSLDMRKLGELEADLKEKDSMVESLTETIGILRKELENEKLKAAENMDSFEKLSMENENLKEKIAHYRAQRFSPAPSGLPGLQTGLTNRLTPSFKPVLGPHTPYGANLNSRTPFRDNTTLNFQNSTIATPHAFRFNSQLIADETTGSSVTNTPPAQR [I279A]	decreasing interaction
MTSKIALFDQTLIASLLQPLSLNQPDFKAYKTKVKLKISEQRNETSGEKELKFEISRSDDFEFLFSETLNNEKYQILARDHDLTVDFDAFPKVIIQHLLCKNIVKNLEEDGEVDARKKAGYHSIADPGKPTEINIILDAEKNFCSFELFSKTPISKGKIFSIKLHAVRGDHLISHLLKICSSQAVKLSTFYKSADELASLRQKCGDLEKQVEKLSGVKEEFEEMSEKFKELEDEVELVKEERENIRLLVEDKEDEVADLKQDTESLQKQLEENQEELEIVGNALREEQGKVDQLQKRNVAHQKEIGKLRAELGTAQRNLEKADQLLKRNSQQQNQQSLDMRKLGELEADLKEKDSMVESLTETIGILRKELENEKLKAAENMDSFEKLSMENENLKEKIAHYRAQRFSPAPSGLPGLQTGLTNRLTPSFKPVLGPHTPYGANLNSRTPFRDNTTLNFQNSTIATPHAFRFNSQLIADETTGSSVTNTPPAQR [M283A]	decreasing interaction

Variants of: B1
Conditions: with sas5_caeel sas-5, Q20010
Remark: another data set of the same source

Variant	effect of a mutation on the interaction
MTSKIALFDQTLIASLLQPLSLNQPDFKAYKTKVKLKISEQRNETSGEKELKFEISRSDDFEFLFSETLNNEKYQILARDHDLTVDFDAFPKVIIQHLLCKNIVKNLEEDGEVDARKKAGYHSIADPGKPTEINIILDAEKNFCSFELFSKTPISKGKIFSIKLHAVRGDHLISHLLKICSSQAVKLSTFYKSADELASLRQKCGDLEKQVEKLSGVKEEFEEMSEKFKELEDEVELVKEERENIRLLVEDKEDEVADLKQDTESLQKQLEENQEELEAVGNMLREEQGKVDQLQKRNVAHQKEIGKLRAELGTAQRNLEKADQLLKRNSQQQNQQSLDMRKLGELEADLKEKDSMVESLTETIGILRKELENEKLKAAENMDSFEKLSMENENLKEKIAHYRAQRFSPAPSGLPGLQTGLTNRLTPSFKPVLGPHTPYGANLNSRTPFRDNTTLNFQNSTIATPHAFRFNSQLIADETTGSSVTNTPPAQR [I279A]	disrupting interaction
MTSKIALFDQTLIASLLQPLSLNQPDFKAYKTKVKLKISEQRNETSGEKELKFEISRSDDFEFLFSETLNNEKYQILARDHDLTVDFDAFPKVIIQHLLCKNIVKNLEEDGEVDARKKAGYHSIADPGKPTEINIILDAEKNFCSFELFSKTPISKGKIFSIKLHAVRGDHLISHLLKICSSQAVKLSTFYKSADELASLRQKCGDLEKQVEKLSGVKEEFEEMSEKFKELEDEVELVKEERENIRLLVEDKEDEVADLKQDTESLQKQLEENQEELEIVGNALREEQGKVDQLQKRNVAHQKEIGKLRAELGTAQRNLEKADQLLKRNSQQQNQQSLDMRKLGELEADLKEKDSMVESLTETIGILRKELENEKLKAAENMDSFEKLSMENENLKEKIAHYRAQRFSPAPSGLPGLQTGLTNRLTPSFKPVLGPHTPYGANLNSRTPFRDNTTLNFQNSTIATPHAFRFNSQLIADETTGSSVTNTPPAQR [M283A]	disrupting interaction

Variants of: B1
Conditions: with sas5_caeel sas-5, Q20010
Remark: another data set of the same source

Variant	effect of a mutation on the interaction
MTSKIALFDQTLIASLLQPLSLNQPDFKAYKTKVKLKISEQRNETSGEKELKFEISRSDDFEFLFSETLNNEKYQILARDHDLTVDFDAFPKVIIQHLLCKNIVKNLEEDGEVDARKKAGYHSIADPGKPTEINIILDAEKNFCSFELFSKTPISKGKIFSIKLHAVRGDHLISHLLKICSSQAVKLSTFYKSADELASLRQKCGDLEKQVEKLSGVKEEFEEMSEKFKELEDEVELVKEERENIRLLVEDKEDEVADLKQDTESLQKQLEENQEELEIVGNMLRAEQGKVDQLQKRNVAHQKEIGKLRAELGTAQRNLEKADQLLKRNSQQQNQQSLDMRKLGELEADLKEKDSMVESLTETIGILRKELENEKLKAAENMDSFEKLSMENENLKEKIAHYRAQRFSPAPSGLPGLQTGLTNRLTPSFKPVLGPHTPYGANLNSRTPFRDNTTLNFQNSTIATPHAFRFNSQLIADETTGSSVTNTPPAQR [E286A]	decreasing interaction
